{"source": "the supplement of paper PMC10567573", "parents": {"B1": {"name": "TBC1D10A (parent)", "chain": "WCLVQICEKYLPGYYSEKLEAIQL"}, "B2": {"name": "RAB22A (parent)", "chain": "FVEDSFDPNINPTIGASFMTKTVQ"}}, "data": [{"variants_of": "B1", "test": "protein stability index of a GFP-peptide fusion (GPS, HEK-293T) (PSI 1-6); higher = more stable", "conditions": "c terminus: a fixed tail appended", "values": [{"variant": "ACLVQICEKYLPGYYSEKLEAIQL", "protein stability index": 3.88}]}, {"variants_of": "B2", "test": "protein stability index of a GFP-peptide fusion (GPS, HEK-293T) (PSI 1-6); higher = more stable", "conditions": "c terminus: a fixed tail appended", "values": [{"variant": "FVEDSFDPNINPTIGASFMKKTVQ", "protein stability index": 2.23}, {"variant": "FVEDSFDPNINPTIGASFMWKTVQ", "protein stability index": 2.35}, {"variant": "FVEDSLDPNINPTIGASFMTKTVQ", "protein stability index": 2.56}, {"variant": "FVEDSVDPNINPTIGASFMTKTVQ", "protein stability index": 3.31}, {"variant": "FVEDSSDPNINPTIGASFMTKTVQ", "protein stability index": 2.99}, {"variant": "FVEDSFDPNINPTIGRSFMTKTVQ", "protein stability index": 2.26}, {"variant": "FVEDSFDPNINPTIGTSFMTKTVQ", "protein stability index": 2.26}, {"variant": "FVEDSFDPNINPTIGGSFMTKTVQ", "protein stability index": 2.56}, {"variant": "FVEDSFDPNINPTIGWSFMTKTVQ", "protein stability index": 2.15}, {"variant": "FVEDSFDHNINPTIGASFMTKTVQ", "protein stability index": 2.1}, {"variant": "FVEDSFDNNINPTIGASFMTKTVQ", "protein stability index": 2.35}, {"variant": "FVEDSFDCNINPTIGASFMTKTVQ", "protein stability index": 2.02}, {"variant": "FVEDSFDKNINPTIGASFMTKTVQ", "protein stability index": 2.13}, {"variant": "FVEDDFDPNINPTIGASFMTKTVQ", "protein stability index": 3.27}, {"variant": "FVEDPFDPNINPTIGASFMTKTVQ", "protein stability index": 1.96}, {"variant": "FVEDSFDPNINPQIGASFMTKTVQ", "protein stability index": 2.44}, {"variant": "FVEDSFDPNINPNIGASFMTKTVQ", "protein stability index": 2.19}, {"variant": "FVEDSFDPNINPIIGASFMTKTVQ", "protein stability index": 1.75}, {"variant": "FVEDSFDPNINPFIGASFMTKTVQ", "protein stability index": 1.59}, {"variant": "FVEDSFDPNINPGIGASFMTKTVQ", "protein stability index": 2.15}, {"variant": "FMEDSFDPNINPTIGASFMTKTVQ", "protein stability index": 3.62}, {"variant": "FHEDSFDPNINPTIGASFMTKTVQ", "protein stability index": 3.61}, {"variant": "FSEDSFDPNINPTIGASFMTKTVQ", "protein stability index": 3.99}, {"variant": "FFEDSFDPNINPTIGASFMTKTVQ", "protein stability index": 2.89}, {"variant": "FVEDSFDPNINPTIGASYMTKTVQ", "protein stability index": 3.08}, {"variant": "FVEDSFDPNINPTIGASNMTKTVQ", "protein stability index": 3.94}, {"variant": "FVEDSFDPNINPTIGASQMTKTVQ", "protein stability index": 3.52}, {"variant": "FVEDSFDPNINPTIGASIMTKTVQ", "protein stability index": 3.32}, {"variant": "FVEDSFDPNINPTIGASSMTKTVQ", "protein stability index": 3.29}, {"variant": "FVYDSFDPNINPTIGASFMTKTVQ", "protein stability index": 1.75}, {"variant": "FVFDSFDPNINPTIGASFMTKTVQ", "protein stability index": 2.57}, {"variant": "FVKDSFDPNINPTIGASFMTKTVQ", "protein stability index": 1.88}, {"variant": "FVEDSFFPNINPTIGASFMTKTVQ", "protein stability index": 2.75}, {"variant": "FVEDSFMPNINPTIGASFMTKTVQ", "protein stability index": 2.33}, {"variant": "FVEDSFRPNINPTIGASFMTKTVQ", "protein stability index": 1.97}, {"variant": "FVEDSFNPNINPTIGASFMTKTVQ", "protein stability index": 1.61}, {"variant": "FVEDSFGPNINPTIGASFMTKTVQ", "protein stability index": 1.79}, {"variant": "FVEDSFDPSINPTIGASFMTKTVQ", "protein stability index": 2.51}, {"variant": "FVEDSFDPMINPTIGASFMTKTVQ", "protein stability index": 2.35}, {"variant": "FVEDSFDPPINPTIGASFMTKTVQ", "protein stability index": 2.49}, {"variant": "FVEDSFDPNINPTPGASFMTKTVQ", "protein stability index": 3.07}, {"variant": "FVEDSFDPNINPTEGASFMTKTVQ", "protein stability index": 3.21}, {"variant": "FVEDSFDPNINPTNGASFMTKTVQ", "protein stability index": 2.81}, {"variant": "FVEDSFDPNINPTLGASFMTKTVQ", "protein stability index": 2.14}, {"variant": "FVEDSFDPNINPTHGASFMTKTVQ", "protein stability index": 2.87}, {"variant": "FVEDSFDPNINPTGGASFMTKTVQ", "protein stability index": 2.59}, {"variant": "FVEDSFDPNINPTWGASFMTKTVQ", "protein stability index": 2.43}, {"variant": "FVEDSFDPNINPTIPASFMTKTVQ", "protein stability index": 2.42}, {"variant": "FVEDSFDPNINPTIDASFMTKTVQ", "protein stability index": 2.86}, {"variant": "FVEDSFDPNINPTIGASFMTKRVQ", "protein stability index": 2.34}, {"variant": "FVEDSFDPNINPTIGASFMTKHVQ", "protein stability index": 2.09}, {"variant": "FVEDSFDPNINPTIGASFMTKKVQ", "protein stability index": 2.77}, {"variant": "FVEDSFDPNINPTIGASFMTKYVQ", "protein stability index": 1.73}, {"variant": "FVEDSFDPNINPTIGASFMTKPVQ", "protein stability index": 2.75}, {"variant": "FVEDSFDPNINHTIGASFMTKTVQ", "protein stability index": 2.46}, {"variant": "FVEDSFDPNINETIGASFMTKTVQ", "protein stability index": 2.57}, {"variant": "FVEDSFDPNINITIGASFMTKTVQ", "protein stability index": 1.82}, {"variant": "FVEDSFDPNINCTIGASFMTKTVQ", "protein stability index": 2.06}, {"variant": "FVEDSFDPNINFTIGASFMTKTVQ", "protein stability index": 2}, {"variant": "FVEDSFDPNINPTIGASFMTMTVQ", "protein stability index": 1.94}, {"variant": "FVEDSFDPNINPTIGASFMTQTVQ", "protein stability index": 2.87}, {"variant": "FVEDSFDPNINPTIGASFMTGTVQ", "protein stability index": 2.29}, {"variant": "FVEDSFDPNINPTIGASFMTTTVQ", "protein stability index": 2.41}, {"variant": "FVEDSFDPNINPTIGASFMTKTYQ", "protein stability index": 2.52}, {"variant": "FVEDSFDPNINPTIGASFMTKTCQ", "protein stability index": 2.37}, {"variant": "FVEDSFDPNINPTIGASFMTKTDQ", "protein stability index": 2.76}, {"variant": "SVEDSFDPNINPTIGASFMTKTVQ", "protein stability index": 3.98}, {"variant": "LVEDSFDPNINPTIGASFMTKTVQ", "protein stability index": 3.51}, {"variant": "MVEDSFDPNINPTIGASFMTKTVQ", "protein stability index": 3.61}, {"variant": "TVEDSFDPNINPTIGASFMTKTVQ", "protein stability index": 4.36}, {"variant": "IVEDSFDPNINPTIGASFMTKTVQ", "protein stability index": 3.72}, {"variant": "FVEDSFDPNIVPTIGASFMTKTVQ", "protein stability index": 2.24}, {"variant": "FVEDSFDPNICPTIGASFMTKTVQ", "protein stability index": 2.46}, {"variant": "FVEDSFDPNIEPTIGASFMTKTVQ", "protein stability index": 2.58}, {"variant": "FVEDSFDPNISPTIGASFMTKTVQ", "protein stability index": 2.04}, {"variant": "FVEDSFDPNIQPTIGASFMTKTVQ", "protein stability index": 2.48}, {"variant": "FVEDSFDPNINPTIGASFMTKTVG", "protein stability index": 2.22}, {"variant": "FVEDSFDPNINPTIGASFMTKTVY", "protein stability index": 2.98}, {"variant": "FVEDSFDPNINPTIGASFMTKTVV", "protein stability index": 2.24}, {"variant": "FVEDSFDPNINPTIGASFMTKTVE", "protein stability index": 2.91}, {"variant": "FVEDSFDPNINPTIGAIFMTKTVQ", "protein stability index": 2.25}, {"variant": "FVEDSFDPNINPTIGARFMTKTVQ", "protein stability index": 2.51}, {"variant": "FVEDSFDPNINPTIGAVFMTKTVQ", "protein stability index": 1.74}, {"variant": "FVEVSFDPNINPTIGASFMTKTVQ", "protein stability index": 2.36}, {"variant": "FVEYSFDPNINPTIGASFMTKTVQ", "protein stability index": 2.98}, {"variant": "FVEQSFDPNINPTIGASFMTKTVQ", "protein stability index": 1.82}, {"variant": "FVEFSFDPNINPTIGASFMTKTVQ", "protein stability index": 3.14}, {"variant": "FVETSFDPNINPTIGASFMTKTVQ", "protein stability index": 1.89}, {"variant": "FVEWSFDPNINPTIGASFMTKTVQ", "protein stability index": 2.1}, {"variant": "FVEDSFDPNINPTIGASFGTKTVQ", "protein stability index": 2.4}, {"variant": "FVEDSFDPNINPTIGASFITKTVQ", "protein stability index": 2.25}, {"variant": "FVEDSFDPNINPTIGASFQTKTVQ", "protein stability index": 2.38}, {"variant": "FVEDSFDPNINPTIGASFSTKTVQ", "protein stability index": 2.64}]}]}
